# Assay results: the RNAGym collection of RNA variant scans (doi:10.1073/pnas.2313332121)
# B1: TPR t1 (parent)
# chain: GACCAAUCUGCCCUCAGAGCUCGAGAACAUCUUCGGAUGCAGAGGAGGCAGGCUUCGGUGGCGCGAUAGCGCCAACGUCCUCAACCUCCAAUGCAUCCCACCACAUGAUGAUGCCUGAAGAGCCUUGGUUUUUUG
# Variants of: B1
# Test: polymerase ribozyme fitness, log enrichment relative to wild type (log ratio); higher = more active; in vitro selection for triplet polymerase activity
# In short: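 Fitness compares each genotype's enrichment to that of the wild type on a logarithmic scale, averaging replicates with inverse-variance weights. The logarithm is base 2. Enrichment came from Illumina sequencing of input and output libraries after one triplicate round of in vitro selection, which included frozen incubation at −7 °C, of PCR-built, transcribed mutant libraries of each subunit of a heterodimeric triplet polymerase ribozyme. Only genotypes with ≥10 input reads and ≥1 read per output were kept.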
row,Variant,polymerase ribozyme fitness (log ratio)
1,GACCAAUCUGCCCUCAGCGCUCGAGAACAUCUUCGGAUGCAGAGGAGGCAGGCUUCGGUGGCGCGAUAGCGUCAACGUCCUCAACCUCCAAUGCAUCCCACCACAUGAUGAUCCCUGAAGAGCCUUGGUUUUUUG [A18C C72U G113C],-3.97
2,GACCAAUCUGCCCUCAGCGCUCGAGAACAUCUUCGUAUGCAGAGGAGGCAGGCUUCGGUGGCGCGAUAGCGCCAACGUCCUCAACCUCCAAUGCAUCCCACCACAUGAUGAUGCCUGAAGAGCCUUGGUUUUUUG [A18C G36U],-4.02
3,GACCAAUCUGCCCUCAGCGCUCGAGAACAUCUUCGGUUGCAGAGGAGACAGGCUUCGGUGGCGCGAUAGCGCCAACGUCCUCAACCUCCAAUGCAUCCCACCACAUGAUGAUGCCUGAAGAGCCUUGGUUUUUUG [A18C A37U G48A],-3.12
4,GACCAAUCUGCCCUCAUAGCUCGAGAACAUCUUCGGAUGCAGAGGAGGCAGGCUUCGGUGGCGCGAUAGCUCCAACGUCCUCAACCUCCAAUGCAUCCCACCACAUGAUGAUGCCUGAAGAGCCUUGGUUUUUUG [G17U G71U],-2.1
5,GACCAAUCUGCCCUCAGCGCUCGAGAACAUCUUCGGAUGCAGAGGAGGCAGGCUUCGGUGGCGCGAUAGCGCCAACGUCCUCAACCUCCAAUGCAUCCCACCACAUGAUGAUGUCUGAAGAGCCUUGGUUUUUUG [A18C C114U],-3.82
6,GACCAAUCUGCCCUCAGCGCUCGAGAACAUCUUCGGAUGCAGAGGAGGCAGGCUUCGCUGGCGCGAUAGCGCCAACGUCCUCAACCUCCAAUGCAUCCCACCACAUGAUGAUGCCUGAAGAGCCUUGGUUUUUUG [A18C G58C],-2.1
7,GACCAAUCUGCCCUCAGCGCUCGAGAACAUCUUCGGAUGCAGAGGAGGCAGGCUUGGGUGGCGCGAUAGCGUCAACGUCCUCAACCUCCAAUGCAUCCCACCACAUGAUGAUGCCUGAAGAGCUUUGGUUUUUUG [A18C C56G C72U C124U],-0.737
8,GACCAAUCUGCCCUCAUAGCUCGAGAACAUCUUCGGAUGCAGAGGAGGCAGGCUUCGGUGGCGCGAUAGCGCCAACGUCCUCAACCUCCAAUGCAUCCCACCACAUGAUCAUGCCUGAAGAGCCUUGGUUUUUUG [G17U G110C],-7.86
9,GACCAAUCUGCCCUCAGCGCUCGAGAACAUCUUCGGAUGUAGAGGAGACAGGCUUGGGUGGCGCGAUAGCGCCAACGUCCUCACCCUCCAAUGCAUCCCACCACAUGAUGAUGUCUGAAGAGCCUUGGUUUUUUG [A18C C40U G48A C56G A84C C114U],-5.13
10,GACCAAUCUGCCCUCAGCGCUCGAGAACUUCUUCGGAUGCAGAGGAGGCAGGCUUCGGUGGCGCGAUAGCGCCAACGUCCUCAACCUCCAAUGCAUCCCACCACAUGAUGAUGCCUGAAGAGCCUUGGUUUUUUG [A18C A29U],-4.04
11,GACCAAUCUGCCCUCAGCGAUCGAGAACAUCUUCGGAUGCAGAGGAGGCAGGCUUCGGUGGCGCGAUAGCGCCAACGUCCUCAACCUCCAAUACAUCCCACCACAUGAUGAUACCUGAAGAGCUUGGGUUUUUUG [A18C C20A G93A G113A C124U U126G],-4.14
12,GACCAAUCUGCCCUCAGCGCUCGAUAACAUCUUCGGAUGCGGAGGAGGCAGGUUUCGGUGGCGCGAUAGCGCCAACGUCCUCAACCUCCAAUGCAUCCCACCACAUGAUGAUGCCUGAAGAGCAUUGGUUUUUUG [A18C G25U A41G C53U C124A],-6.92
13,GACCAAUCUGCCCUCAGCGCUCGAGAACAUCUUCGGAUGCAGAGGAGGCAGGCUUCGGUGGCGCGAUAGCGCCAACGUCCUCAACCUCCAAUGCAUCCCACCACAUGAUGAUGCCUGAAGAGCUUUGGUUUUUUG [A18C C124U],-1.22
14,GACCAAUCUGCCCUCAGCGCUCGAGAACAUCUUCGGAUGCAGAGGAGGCAGGCUUCGGUGGCGCGAUAGCGCCAACGUCCUCAACGUCCAAUGCAUCCCACCACAUGAUGAUGCCUGAAGAGCCUUGGUUUUUUG [A18C C86G],-3.25
15,GACCAAUCUGCCCUCAGCGCUCGAGAACAUCUUCGGAUGCAGAGGAGGCAGGCUUAGGUGGCGCGAUAGCGCCAACGUCCUAAACCUCCAAUGUAUCCCACCACACGAUGAUGCCUGAAGAGCCUUGGUUUUUUG [A18C C56A C82A C94U U106C],-4.93
16,GACCAAUCUGCCCUCAGCGCUCGGGAACAUCUUCGGAUGCAGAGGAGGCAGGCUUCGAUGGCGCGAUAGCGCCAACGUCCUCAACCUCCAACGCAUCCCACCACAUGAUGAUGCCUGAAGAGCCUUGGUUUUUUG [A18C A24G G58A U92C],-5.73
17,GACCAAUCUGCCCUCAGCGCUCGAGAACAUCUUCGGAUGCAGAGGAGACAGGCUUCGGUGGCGCGAUAGCGCCAACGUCCUCAACCUCCAAUGGAUCCCACCACAUGAUGAUGCCUGAAGAGCCUUGGUUUUUUG [A18C G48A C94G],-3.96
18,GACCAAUCUGCCCUCAGCGCUCGAGAACAUCUUCGGAUGCAGAGGAGGCAGGCUUCGGUGGGGCGAUAGCGCCAACGUCCUCAACCCCCCAUGCAUCCCACCACAUGAUCAUGCAUGAAGAGCCUUGGUUUUUUG [A18C C62G U87C A90C G110C C115A],-7
19,GACCAAUCUGCCCUCAGCGCUCGAGAACAUCUUCGGAUGCAGAGGAGGCAGGCUUUGGUGGCGCGAUAGCGCCAACGUCCUCAACCUCCAAUGCAUCCCACCACAUGAUGAUGCCUGAAGAGCCUUGGUUUAUUG [A18C C56U U132A],-2.9
20,GACCAAUCUGCCCUCAGCGCUCGAGAACUUCUUCGGAUGCAGAGGAGGCAGGCUUCGGUGGCGCGAUAGCGCCAACGUCCUCAACCUUUAAUGCAUUCCACCACAUGAUGAUGCCUGAAGAGCCUUGGUUUUUUG [A18C A29U C88U C89U C97U],-4.49
21,GACCAAUCUGCCCUCAGCGCUCGAGAACAUCUUCGGGUGCAGAGGAGGCAGGCUUCGGUGGCGCGAUAGCGCCAACGUCCUCAACCUCCAAUGCAUCCCACCACAUGAUCAUGCCUGAAGAGCCUUGGUUUUUUG [A18C A37G G110C],-6.11

row,Variant,polymerase ribozyme fitness (log ratio)
1,GACCAAUCUGCCCUCAUAGCUCGAGAACAUCUUCGGAUGCAGAGGAGGCAGGCUUCGGCGGCGCGAUAGCGCCAACGUCCUCAACCUCCAAUGCAUCCCACCACAUGGUGAUGCCUGUAGAGCCUUGGUUUUUUG [G17U U59C A108G A118U],-5.03
2,GACCAAUCUGCCCUCAGCGCUCGAGAACAUCUUCGGAUGCAGAGGAGGCAGGCUUGGGUGGCGCGAUAGCGUCAACGUCCUCAACCUCCAAUGCAUCCCACCACAUGAUGAUGCCUGAAGAGCCUUGGUUUUUUG [A18C C56G C72U],-1.24
3,GACCAAUCUGCCCUCAGCGCUCGAGAACAUCUUCGGAUGCAGAGGAGGCAGGCUUCGGUGGCGCGAUAGCGCCAACGUCCUCAACCUCGAAUGCAUCCCACCACAUGAUGAUGCCCGAAGAGCAUUGGUUUUUUG [A18C C89G U116C C124A],-0.0811
4,GACCAAUCUGCCCUCAGCGCUCGAGAACAUCUUCGGAUGCAGAGGAGGCAGGCUUCGGUGGCGCGAUAGCGCCAACGUCCUCAACCUCCAAUGCAUCCCCCCACAUGAUGAUGCCUGAAGAGCCUUGGUUUUUUG [A18C A100C],-4.31
5,GACCAAUCUGCCCUCAGCGCUCGAGAACAUCUUCGGAUGCAGUGGAGGCAGGCUUCGGUGGCGCGAUAGCGCCAACGUCCUCAACCUCCAAUGCAUCCCACCACAUGAUGAUGCCUGAAGAGCCUUGGUUUUUUG [A18C A43U],0.3
6,GACCAAUCUGCCCUCAGCGCUCGAGAACAUCUUCGGAUGCAGAAGAGGCAGGCUUCGGUGUCGCGAUAGCGCCAACGUCCUCAAGCUCCAAUGCAUCCCACCACAUGAUGAUGCCUGAAGUGCCUUGGUUUUUUG [A18C G44A G61U C85G A121U],-2.31
7,GACCAAUCUGCCCUCAGCGCUCGAGAACAUCUUCGGAUGCAGAGGAGGCAGGCUUCGGUAGCGCGAUAGCGCCAACGGCCUCAACCUCCAAUGCAUCCCACCACAUGAUCAUGCCUGAAGAGCCUUGGUUAUUUG [A18C G60A U78G G110C U131A],-7.27
8,GACCAAUCUGCCCUCAUAGCGCGAGAACAUCUUCGGAUGCAGAGGACGCAGGCUUCGGUGGCGCGAUAGCGCCAACGUCCUCAACCUCCAAUGCAUCCCACCACAUGAUGAUGCAUGAAGAGCCUUGGUUUUUUG [G17U U21G G47C C115A],-1.81
9,GACCAAUCUGCCCUCAGCGCUCGAGAACAUCUUCGGAUGCAGAGGAGGCAGGUUUCGGUGGCGCGAUAGCGCCAACGUCCUCAACCUCCAAUGCAUCCCACCACAUGAUGAUGCCUGAAGUGCCUUGGUUUUUUG [A18C C53U A121U],-0.907
10,GACCAAUCUGCCCUCAGCUCUCGAGAACAUCUUCGGAUGCAGAGGAGGCAGGCUUCGGUGGCGCGAUAGCGGCAACGUCCUCAACCUCCAAUGCAUCCCACAAGAAGAUGAUGCCUGAAGAGGCUUGGUUUUUUG [A18C G19U C72G C102A C104G U106A C123G],-5.8
11,GACCAAUCUGCCCUCAGCGCUCGAGAACAUCUUCGGAUUCAGAGGAGGCAGGCUUCGGUGGCGCGAUAGCGCCAACGUCCUCAACCUCCAAUGCAUCCCAACACAUGAUGAUGCCUGAAGAGCCUUGGUUUUUUG [A18C G39U C101A],-3.85
12,GACCAAUCUGCCCUCAGCGCUCGAGAACAUCUUCGGAUGCAGAGGAGGCAGGCUUCGGUGGUGCGAUAGCGCCAACGUCCUCAACCCCCAAUGCAUCCCACCACAUGAUGAUGCCUGAAGAGCCUUGGUUUUUUG [A18C C62U U87C],-3.61
13,GACCAAUCUGCCCUCAGCGCUCGAGAACAUCUUCGGAUGCAGGGGAGGCAGGCUUCGGUGGCGCGAUAGCGCCAACGUCCUCAACCUCCAAUGCAUCCCACCACAUGAUGAUGUCUGAAGAGCCUUGGCUUUUUG [A18C A43G C114U U129C],-3.16
14,GACCAAUCUGCCCUCAGCGCUCGAGAACAUCUUCGGAUGCAGAGGAGACAGGCUUCGGUGGCGCGAUAGCGCCAACGUCCUCAACCUCCAAUGCAUCCCACCACAUGAUGAUGCCUGAGAAGCCUAGGUUUUUUG [A18C G48A A119G G120A U126A],-3.21
15,GACCAAUCUGCCCUCAGCGCUCGAGAACAUCUUCGGAUGCAGAGGAGGCAGGCUUCGGUGGCGCGUUAGCGCCAACGUCCUCAACCUCCAAUGCAUCCCACCACAUGAUGAUGCCUGAAGAGCCUUGGUUUUUUG [A18C A66U],-5.53
16,GACCAAUCUGCCCUCAUAGCUCGAGAACAUCUUCGGAGGCAGAGAAGGCAGGCUUCGGUGGCGCGAUAGCGCCAACGUCCUCAACCUUCAAUGCAUCCCAUCACAUGAUGAUGCCUGAAGAGCCUUGGUUUUUUG [G17U U38G G45A C88U C101U],-2.92
17,GACCAAUCUGCCCUCAGCGCUCGAGAACAUCUUCGGAUGCAGAGGAGGCAGGCUUCGGUGGCGCGAUAGCGCCAACGUCCUAAUCCUCCAAUGCAUCCCACCACAUGAUGAUGCCUGAAGAGCCUUGGUUUUUUG [A18C C82A A84U],-3.72
18,GACCAAUCUGCCCUCAGCGCUCGAGAACAUCUUCGGAUGCAGAGGAGGCAGGUUUCGGUGGCGCGAUAGUGCCAACGUCCUCAACCUCCAAUGCAUCCCACCACAUGAUGAUGCCUGAAGAGCCUUGGUUUUUUG [A18C C53U C70U],-4.83
19,GACCAAUCUGCCCUCAGCGCUCGAGAACAUCUUCGGAUGCAGAGGAGGCAGGCUUCGGUGGCGCGAUAGCGCCAACGUCCUCAACCUCCAAUGCUUCCCACCACAUGAUGAUGCCUGAAGAGCAUUGGUUUUUUG [A18C A95U C124A],-0.947
20,GACCAAUCUGCCCUCAGCGCUCGAGAACAUCUUCGGAUGCAGAGGAGGCAGGCUUCGGUGGUGCGAUAGCGCCAACGUCCUCAACCUCCAAUGCAUCCCACCACAUGAUGAUGCCUGAAGAGCCUUGGUUUUUUG [A18C C62U],-2.83
21,GACCAAUCUGCCCUCAGCGCUCGAGAACAUCUUCGGAUGCAGAGGAAGCAGGCUUCGGUGGCGCGAUAGCGCCAACGUCCUCAACCUCCAAUGCAUCCCACCACAUGAUGAUGCCUGAAGUGCCUUGGUUUUUUG [A18C G47A A121U],-1.35
